From patent US20060234944

How the values were obtained:
substrate EVNLAVEFWHDR = molecular target: T1, substrate EVNLAVEFWHDR
T1 chain: EVNLAVEFWHDR

substrate RWHHEVNLAAEF = molecular target: T2, substrate RWHHEVNLAAEF
T2 chain: RWHHEVNLAAEF

substrate EEISEVNLAAEF = molecular target: T3, substrate EEISEVNLAAEF
T3 chain: EEISEVNLAAEF

B1: memapsin 2 (spontaneously activated promemapsin 2-T1; amino acids 43-456 and 45-456 of SEQ ID NO: 8) (protein)
chain: LRLPRETDEEPEEPGRRGSFVEMVDNLRGKSGQGYYVEMTVGSPPQTLNILVDTGSSNFAVGAAPHPFLHRYYQRQLSSTYRDLRKGVYVPYTQGKWEGELGTDLVSIPHGPNVTVRANIAAITESDKFFINGSNWEGILGLAYAEIARPDDSLEPFFDSLVKQTHVPNLFSLQLCGAGFPLNQSEVLASVGGSMIIGGIDHSLYTGSLWYTPIRREWYYEVIIVRVEINGQDLKMDCKEYNYDKSIVDSGTTNLRLPKKVFEAAVKSIKAASSTEKFPDGFWLGEQLVCWQAGTTPWNIFPVISLYLMGEVTNQSFRITILPQQYLRPVEDVATSQDDCYKFAISQSSTGTVMGAVIMEGFYVVFDRARKRIGFAVSACHVHDEFRTAAVEGPFVTLDMEDCGYNIPQTDEST
Substrate EVNLAVEFWHDR
  Km: Km of 83±8.9 mM
Substrate RWHHEVNLAAEF
  rate of catalysis in competitive cleavage assay (MALDI-TOF), relative to EVNLAAEFWHDR: a 60-fold decrease in the rate of catalysis for the upstream RWHH (SEQ ID NO: 53) sequence addition when compared to the downstream WHDR (SEQ ID NO: 29) sequence addition
Substrate EEISEVNLAAEF
  rate of catalysis in competitive cleavage assay (MALDI-TOF), relative to EVNLAAEFWHDR: statistically identical rates of catalysis for the upstream EEIS (SEQ ID NO: 52) and the downstream WHDR (SEQ ID NO: 29) sequence additions
